# From the supplement of paper PMC10567573
# B1: DYRK1B (parent)
# chain: KKVLNHGYDDDNHDYIVRSGERWL
# B2: ETS1 (parent)
# chain: FSEPSFITESYQTLHPISSEELLS
# Variants of: B1
# Experiment: protein stability index of a GFP-peptide fusion (GPS, HEK-293T) (PSI 1-6); higher = more stable
# Conditions: c terminus: a fixed tail appended
# 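Also: lentivirally expressed fusions sorted by FACS into six bins by GFP to DsRed ratio, PSI derived from sequencing read proportions per bin multiplied by bin number.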
row,Variant,protein stability index
1,KIVLNHGYDDDNHDYIVRSGERWL,2.23
2,KCVLNHGYDDDNHDYIVRSGERWL,1.9
3,KDVLNHGYDDDNHDYIVRSGERWL,4.31
4,KNVLNHGYDDDNHDYIVRSGERWL,3.79
5,KSVLNHGYDDDNHDYIVRSGERWL,2.97
6,KWVLNHGYDDDNHDYIVRSGERWL,2.12
7,KYVLNHGYDDDNHDYIVRSGERWL,2.52
8,KRVLNHGYDDDNHDYIVRSGERWL,3.13
9,KQVLNHGYDDDNHDYIVRSGERWL,3.32
10,KEVLNHGYDDDNHDYIVRSGERWL,3.7
11,KHVLNHGYDDDNHDYIVRSGERWL,3.19
12,KTVLNHGYDDDNHDYIVRSGERWL,3.53
13,KVVLNHGYDDDNHDYIVRSGERWL,2.86
14,KGVLNHGYDDDNHDYIVRSGERWL,3.6
15,KFVLNHGYDDDNHDYIVRSGERWL,2.52
16,KLVLNHGYDDDNHDYIVRSGERWL,2.12
17,KPVLNHGYDDDNHDYIVRSGERWL,3.46
18,KMVLNHGYDDDNHDYIVRSGERWL,2.86
19,KAVLNHGYDDDNHDYIVRSGERWL,3.33
20,KKSLNHGYDDDNHDYIVRSGERWL,3.47

row,Variant,protein stability index
1,KKKLNHGYDDDNHDYIVRSGERWL,3.08
2,KKYLNHGYDDDNHDYIVRSGERWL,2.73
3,KKELNHGYDDDNHDYIVRSGERWL,3.48
4,KKLLNHGYDDDNHDYIVRSGERWL,2.88
5,KKALNHGYDDDNHDYIVRSGERWL,3.45
6,KKCLNHGYDDDNHDYIVRSGERWL,2.41
7,KKDLNHGYDDDNHDYIVRSGERWL,3.74
8,KKPLNHGYDDDNHDYIVRSGERWL,2.94
9,KKNLNHGYDDDNHDYIVRSGERWL,3.15
10,KKRLNHGYDDDNHDYIVRSGERWL,2.83
11,KKMLNHGYDDDNHDYIVRSGERWL,3.04
12,KKTLNHGYDDDNHDYIVRSGERWL,3
13,KKILNHGYDDDNHDYIVRSGERWL,2.73
14,KKFLNHGYDDDNHDYIVRSGERWL,2.61
15,KKQLNHGYDDDNHDYIVRSGERWL,3.08
16,KKWLNHGYDDDNHDYIVRSGERWL,2.05
17,KKHLNHGYDDDNHDYIVRSGERWL,3.12
18,KKGLNHGYDDDNHDYIVRSGERWL,3.33
19,AKVLNHGYDDDNHDYIVRSGERWL,3.11
20,WKVLNHGYDDDNHDYIVRSGERWL,2.07

row,Variant,protein stability index
1,EKVLNHGYDDDNHDYIVRSGERWL,3.24
2,SKVLNHGYDDDNHDYIVRSGERWL,3.23
3,QKVLNHGYDDDNHDYIVRSGERWL,2.74
4,NKVLNHGYDDDNHDYIVRSGERWL,2.95
5,TKVLNHGYDDDNHDYIVRSGERWL,2.92
6,PKVLNHGYDDDNHDYIVRSGERWL,3.43
7,CKVLNHGYDDDNHDYIVRSGERWL,2.38
8,FKVLNHGYDDDNHDYIVRSGERWL,2.41
9,GKVLNHGYDDDNHDYIVRSGERWL,3.5
10,LKVLNHGYDDDNHDYIVRSGERWL,2.48
11,DKVLNHGYDDDNHDYIVRSGERWL,3.62
12,YKVLNHGYDDDNHDYIVRSGERWL,2.38
13,IKVLNHGYDDDNHDYIVRSGERWL,2.28
14,MKVLNHGYDDDNHDYIVRSGERWL,3.09
15,HKVLNHGYDDDNHDYIVRSGERWL,3.39
16,VKVLNHGYDDDNHDYIVRSGERWL,2.29
17,RKVLNHGYDDDNHDYIVRSGERWL,2.43
18,KKVANHGYDDDNHDYIVRSGERWL,3.68
19,KKVCNHGYDDDNHDYIVRSGERWL,3.33

# Variants of: B2
# Experiment: as above
# Conditions: c terminus: a fixed tail appended
row,Variant,protein stability index
1,FSEPMFITESYQTLHPISSEELLS,2.37
2,FSEPNFITESYQTLHPISSEELLS,2.34
3,FSEPYFITESYQTLHPISSEELLS,1.8
4,FSEPVFITESYQTLHPISSEELLS,1.91
5,FSEPKFITESYQTLHPISSEELLS,2.14
6,FSEPQFITESYQTLHPISSEELLS,1.75
7,FSEPWFITESYQTLHPISSEELLS,2.11
8,FSEPSFITESYQTLHNISSEELLS,1.89
9,FSEPSFITESYQTLHSISSEELLS,2.21
10,FSEPSFITESYQTLHGISSEELLS,2.19
11,FSEPSFITESYQTLHLISSEELLS,3.29
12,FSEPSFITESYQTLHPISSEETLS,1.97
13,FSEPSFITESYQTLHPISSEEFLS,2.01
14,FSEPSFITESYQTLHPISSEEHLS,2.71
15,FSEPSFITESYQTLHPISSEENLS,2.33
16,FSEPSFITESYQTLHPISSEEVLS,2.31
17,FSEPSFITESYQTLHPISSEEDLS,2.16
18,FSEPSFITESYQTLHPISSEEELS,2.67
19,FSEPSFITVSYQTLHPISSEELLS,2.05
20,FSEPSFITISYQTLHPISSEELLS,2.57
21,FSEPSFITCSYQTLHPISSEELLS,2.25
22,FSEPSFITMSYQTLHPISSEELLS,2.32
23,FSEPSFITSSYQTLHPISSEELLS,2.25
24,FSEPSFITESTQTLHPISSEELLS,2.3
25,FSEPSFITESMQTLHPISSEELLS,2.02
26,FSEPSFITESEQTLHPISSEELLS,2.95

row,Variant,protein stability index
1,FSEPSFITESRQTLHPISSEELLS,1.82
2,FSEPSFITESDQTLHPISSEELLS,2.96
3,FSEPSFITESNQTLHPISSEELLS,2.56
4,FSEPSFITESYQTLHPISSEELLY,1.79
5,FSEPSFITESYQTLHPISSEELLA,2.02
6,FSEPSFITESYQTLHPISSEELLT,1.99
7,FSEPSFITESYQTLHPISSEELLW,1.56
8,FSEPSFITESYQTLHPISSEELAS,2.57
9,FSEPSFITESYQTLHPISSEELGS,1.98
10,FSEPSFITESYQTLHPISSEELMS,2.03
11,FSEPSFITESYQTLHPISSEELFS,2.38
12,FSEPSFITESYQTLHPISSEELRS,2.16
13,FSEPSFITESYQTLHPISSEELWS,1.81
14,FSEPSFITESYQTLDPISSEELLS,2.48
15,FSEPSFITESYQTLFPISSEELLS,1.95
16,FSEPSFITESYQTLSPISSEELLS,1.91
17,FSEPSFITESYQTLKPISSEELLS,2.33
18,FSEPSFITESYQTLRPISSEELLS,2.82
19,FSEPSFITESYQTLHPISSVELLS,2.04
20,FSEPSFITESYQTLHPISSCELLS,1.8
21,FSEPSFITESYQTLHPISSFELLS,1.77
22,FSEPSFITESYQTLHPISSPELLS,1.73
23,FSEPSFITESYQTLHPISSQELLS,2.12
24,FSEPSFITESYQTLHPISSYELLS,1.72
25,FSEPSFITEFYQTLHPISSEELLS,1.7
26,FSEPSFITECYQTLHPISSEELLS,1.53

row,Variant,protein stability index
1,FSEPSFITELYQTLHPISSEELLS,2.52
2,FSEPSFITERYQTLHPISSEELLS,2.16
3,FSEPSFITEQYQTLHPISSEELLS,2.35
4,FSEPSFITEVYQTLHPISSEELLS,2.52
5,FSEPSFITEYYQTLHPISSEELLS,1.74
6,FSEPSFIKESYQTLHPISSEELLS,2.32
7,FSEPSFIDESYQTLHPISSEELLS,3.47
8,FSEPSFIEESYQTLHPISSEELLS,3.4
9,FSEPSFIMESYQTLHPISSEELLS,1.78
10,FSEPSFITESYQTLHPIRSEELLS,2.19
11,FSEPSFITESYQTLHPICSEELLS,2.2
12,FSEPSFITESYQTLHPIGSEELLS,1.8
13,FSEPSFITESYQTLHPIPSEELLS,2.08
14,FSEPSFITESYQTLHPITSEELLS,1.97
15,FSEPSFITESYNTLHPISSEELLS,2.26
16,FSEPSFITESYYTLHPISSEELLS,1.56
17,FSEPSFITESYLTLHPISSEELLS,2.45
18,FSEPSFITESYWTLHPISSEELLS,2.42
19,FSYPSFITESYQTLHPISSEELLS,2.23
20,FSNPSFITESYQTLHPISSEELLS,1.87
21,FSIPSFITESYQTLHPISSEELLS,1.77
22,FSEPSFITESYQTLHPISSEILLS,1.81
23,FSEPSFITESYQTLHPISSERLLS,1.96
24,FSEPSFITESYQTLHPISSECLLS,1.79
25,FSEPSFITESYQTLHPISSEVLLS,2.2
26,FSEPSFITESYQTLHPISSEMLLS,2.1

row,Variant,protein stability index
1,FSEPSFITESYQTLHPISSEPLLS,1.94
2,FSEPSFITESYQTLHPISSENLLS,1.85
3,FSEPSFITESYQTLHPISSEHLLS,2.24
4,DSEPSFITESYQTLHPISSEELLS,4.47
5,GSEPSFITESYQTLHPISSEELLS,4.4
6,ASEPSFITESYQTLHPISSEELLS,4.17
7,VSEPSFITESYQTLHPISSEELLS,4.18
8,ISEPSFITESYQTLHPISSEELLS,4.03
9,HSEPSFITESYQTLHPISSEELLS,4.1
10,FSEPSFITESYQTCHPISSEELLS,1.93
11,FSEPSFITESYQTHHPISSEELLS,2.35
12,FSEPSFITESYQTEHPISSEELLS,2.33
13,FSEPSFITESYQTQHPISSEELLS,2.48
14,FSEPSFITESYQTWHPISSEELLS,2.66
15,FSEPSFVTESYQTLHPISSEELLS,2.21
16,FSEPSFYTESYQTLHPISSEELLS,2.82
17,FSEPSFLTESYQTLHPISSEELLS,2.19
18,FSEPSFTTESYQTLHPISSEELLS,3.29
19,FSEPSFITESYQRLHPISSEELLS,1.61
20,FSEPSFITESYQPLHPISSEELLS,2.11
21,FSEPSFITESYQLLHPISSEELLS,1.99
22,FSEPSFITESYQVLHPISSEELLS,2.21
23,FSEPSFITESYQNLHPISSEELLS,1.68
24,FSEPSFITESYQQLHPISSEELLS,2.4
25,FSEPSFITESYQTLHPASSEELLS,2.33
26,FSEPSFITESYQTLHPNSSEELLS,2.34

row,Variant,protein stability index
1,FSEPSFITESYQTLHPESSEELLS,2.39
2,FSEPSFITESYQTLHPMSSEELLS,1.78
3,FSEPSFITESYQTLHPYSSEELLS,2.03
4,FSEPSFITESYQTLHPSSSEELLS,2.14
5,FSEPSFITESYQTLHPKSSEELLS,2.36
6,FSENSFITESYQTLHPISSEELLS,2.99
7,FSEESFITESYQTLHPISSEELLS,3.19
8,FSEGSFITESYQTLHPISSEELLS,2.37
9,FSEPSFITESYQTLHPISYEELLS,1.7
10,FSEPSFITESYQTLHPISFEELLS,1.88
11,FSEPSFITESYQTLHPISDEELLS,2.31
12,FSEPSFITESYQTLHPISREELLS,2.24
13,FSEPSFITESYQTLHPISQEELLS,2.21
14,FSEPSLITESYQTLHPISSEELLS,3.22
15,FSEPSGITESYQTLHPISSEELLS,3.85
16,FSEPSWITESYQTLHPISSEELLS,2.27
17,FSEPSKITESYQTLHPISSEELLS,3.58
18,FSEPSTITESYQTLHPISSEELLS,4.34
19,FSEPSDITESYQTLHPISSEELLS,4.8
20,FMEPSFITESYQTLHPISSEELLS,1.72
21,FREPSFITESYQTLHPISSEELLS,2.66
22,FLEPSFITESYQTLHPISSEELLS,1.49
23,FCEPSFITESYQTLHPISSEELLS,2.38
24,FTEPSFITESYQTLHPISSEELLS,1.95
25,FHEPSFITESYQTLHPISSEELLS,2.46
